The text below walks through data of patent publication US20250313637A1 (DREN BIO MANAGEMENT, published 2025).

Assay [1] addresses T1, human Dectin-1 expressed by HEK-Blue hDectin-1-a cells (human, UniProt Q9BXN2 1-247).
T1 sequence: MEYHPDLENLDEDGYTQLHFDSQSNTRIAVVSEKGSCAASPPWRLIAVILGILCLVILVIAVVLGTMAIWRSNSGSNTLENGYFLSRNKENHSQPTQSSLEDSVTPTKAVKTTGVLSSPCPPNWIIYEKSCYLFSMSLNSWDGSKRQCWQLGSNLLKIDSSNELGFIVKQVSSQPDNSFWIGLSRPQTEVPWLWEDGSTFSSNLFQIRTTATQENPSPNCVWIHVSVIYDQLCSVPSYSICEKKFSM
Briefly: cell-based or functional assay.

Assay [2] concerns the target T2, CD20 expressed on Raji cells (UniProt P11836 1-297, limits assumed).
T2 construct: whole, on cells; also called CD20-expressing Raji cells; CD20-expressing B cell lymphoma Raji cell line
T2 sequence (looked up): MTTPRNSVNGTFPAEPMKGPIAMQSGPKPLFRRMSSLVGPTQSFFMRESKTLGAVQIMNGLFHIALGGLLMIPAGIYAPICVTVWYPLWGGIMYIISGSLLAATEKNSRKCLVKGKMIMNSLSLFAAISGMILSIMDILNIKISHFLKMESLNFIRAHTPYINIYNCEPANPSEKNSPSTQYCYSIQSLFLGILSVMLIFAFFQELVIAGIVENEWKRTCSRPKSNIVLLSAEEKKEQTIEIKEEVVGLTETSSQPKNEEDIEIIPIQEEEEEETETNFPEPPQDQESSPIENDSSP
Briefly: flow cytometry on CD20-expressing Raji cells. The procedure:
To evaluate the effect of the 2M24xCD20 bispecific antibody on cells, its binding affinity for cells expressing Dectin-1 or CD20 was measured. Two different formats were used to drive heavy:light chain pairing and bispecific antibody assembly: the DuetMab format with engineered disulfide bonds (see Mazor, Y. et al. (2015) MAbs 7:377-389) (“2M24xCD20 hG1 Duet”) and the M-Fab format described herein (see, e.g., FIG. 3) (“2M24xCD20 hG1M”), as compared to monospecific anti-CD20 with hG1 Fc. Binding of the bispecific 2M24xCD20 antibodies to Dectin-1-expressing HEK293 cells was assessed by flow cytometry (FIG. 7A). Both M-Fab and DuetMab formats were able to bind cells expressing Dectin-1 with similar affinities. Binding of the bispecific 2M24xCD20 antibodies to cells expressing CD20 was also assessed by flow cytometry, using the CD20-expressing B cell lymphoma Raji cell line (FIG. 7B). Both M-Fab and DuetMab were able to bind cells expressing CD20 with similar affinities, but with reduced affinity compared to the parental monospecific anti-CD20 antibody.
Background: A flow cytometer gives signals particle by particle.

B1: DuetMab 2M24xCD20 bispecific antibody (2M24xCD20 hG1 Duet) (bispecific antibody, V domains shown)
VH 1: QVQLVQSGAEVKKPGASVKVSCKSSGYTFTDYYIHWVRQAPGQGLEWMGWINPNSGDTNYAQKFQGRITMTRDTSISTAYLELSRLRSDDTAVFYCARNSGSYSFGYWGQGTLVTVSS
VL 1: DIQMTQSPSSVSASVGDRVTITCRASQGISSWLAWYQQKPGKAPKLLIFGASSLQSGVPSRFSGSGSGTDFTLTVSSLQPEDFATYYCQQAYSFPFTFGPGTKVDIE
VH 2: QVQLQQPGAELVKPGASVKMSCKASGYTFTSYNMHWVKQTPGRGLEWIGAIYPGNGDTSYNQKFKGKATLTADKSSSTAYMQLSSLTSEDSAVYYCARSTYYGGDWYFNVWGAGTTVTVSA
VL 2: QIVLSQSPAILSASPGEKVTMTCRASSSVSYIHWFQQKPGSSPKPWIYATSNLASGVPVRFSGSGSGTSYSLTISRVEAEDAATYYCQQWTSNPPTFGGGTKLEIK
notes: Human IgG1 in the DuetMab format with engineered disulfide bonds (Mazor 2015)
As for B1, in assay [1], the “SEAP reporter assay EC50 (OD630), HEK-Blue hDectin-1-a cells co-cultured with CD20-expressing Raji cells, Exp. 1” value is 2.63 nM and the “SEAP reporter assay EC50 (OD630), HEK-Blue hDectin-1-a cells co-cultured with CD20-expressing Raji cells, Exp. 2” value was 3.19 nM. The binding result in assay [2] is “binds”.

B2: 2+1 M-Fab (2M24xTrop2 hIgG1) bispecific antibody (bispecific antibody)
heavy 1: not shown
light 1: not shown
heavy 2: not shown
light 2: DIVLTQSPGTLSLSPGERATLSCRASQSVSSSYLAWYQQKPGQAPRLLISGASSRATGIPDRFSGSGSGTDFTLTISRLEPEDFAVYYCQQYGSSHRTFGQGTKVEIKRTVALHRPDVYLLPPAREQLNLRESATIWCLVTGFSPADVFVQWMQRGQPLSPEKYVTSAPMPEPQAPGRYFAHSILTVSEEEWNTGETYTCVVAHEALPNRVTERTVDKSTGES
With B2, in assay [1], the “SEAP reporter assay EC50, in presence of CHO cells (~2 million copies/cell)” value is 0.13 nM; the “SEAP reporter assay EC50, in presence of H2170 cells expressing Trop2 (~136,000 copies/cell)” value turned out to be 0.17 nM; the “SEAP reporter assay EC50, in presence of HeLa cells expressing Trop2 (~25,500 copies/cell)” value is 0.37 nM; the “SEAP reporter assay, fold shift in EC50 against traditional bispecific, CHO cells” value was 9.8 fold. Besides, in assay [1], the “SEAP reporter assay, fold shift in EC50 against traditional bispecific, H2170 cells” value came to 47.6 fold and the “SEAP reporter assay, fold shift in EC50 against traditional bispecific, HeLa cells” value turned out to be 4.7 fold.

B3: M-Fab 2M24xCD20 bispecific antibody (2M24xCD20 hG1M) (bispecific antibody, human IgG1, kappa)
heavy 1: not shown
light 1: DIQMTQSPSSVSASVGDRVTITCRASQGISSWLAWYQQKPGKAPKLLIFGASSLQSGVPSRFSGSGSGTDFTLTVSSLQPEDFATYYCQQAYSFPFTFGPGTKVDIERTVALHRPDVYLLPPAREQLNLRESATIWCLVTGFSPADVFVQWMQRGQPLSPEKYVTSAPMPEPQAPGRYFAHSILTVSEEEWNTGETYTCVVAHEALPNRVTERTVDKSTGEC
heavy 2: QVQLQQPGAELVKPGASVKMSCKASGYTFTSYNMHWVKQTPGRGLEWIGAIYPGNGDTSYNQKFKGKATLTADKSSSTAYMQLSSLTSEDSAVYYCARSTYYGGDWYFNVWGAGTTVTVSAASTKGPSVFPLAPSSKSTSGGTAALGCLVKDYFPEPVTVSWNSGALTSGVHTFPAVLQSSGLYSLSSVVTVPSSSLGTQTYICNVNHKPSNTKVDKKVEPKSCDKTHTCPPCPAPELLGGPSVFLFPPKPKDTLMISRTPEVTCVVVDVSHEDPEVKFNWYVDGVEVHNAKTKPREEQYNSTYRVVSVLTVLHQDWLNGKEYKCKVSNKALPAPIEKTISKAKGQPREPQVYTLPPSREEMTKNQVSLSCAVKGFYPSDIAVEWESNGQPENNYKTTPPVLDSDGSFFLVSKLTVDKSRWQQGNVFSCSVMHEALHNRFTQKSLSLSPG
light 2: QIVLSQSPAILSASPGEKVTMTCRASSSVSYIHWFQQKPGSSPKPWIYATSNLASGVPVRFSGSGSGTSYSLTISRVEAEDAATYYCQQWTSNPPTFGGGTKLEIKRTVAAPSVFIFPPSDEQLKSGTASVVCLLNNFYPREAKVQWKVDNALQSGNSQESVTEQDSKDSTYSLSSTLTLSKADYEKHKVYACEVTHQGLSSPVTKSFNRGEC
For the molecule B3, in assay [1], the “SEAP reporter assay EC50 (OD630), HEK-Blue hDectin-1-a cells co-cultured with CD20-expressing Raji cells, Exp. 1” value stood at 3.65 nM and the “SEAP reporter assay EC50 (OD630), HEK-Blue hDectin-1-a cells co-cultured with CD20-expressing Raji cells, Exp. 2” value is 3.53 nM.
